B1: Antibody Ab5 (antibody, human IgG1, kappa, N297A, V domains shown)
VH: QSVEESGGRLVTPGTPLTLTCTVSGFSLSNYAVGWVRQAPGKGLEWIGIIGRNGNTWYASWARGRFTISKTSTTVDLKITSPTSEDTATYFCARGYGRSVAYYVFNIWGPGTLVTVSS
VL: AYDMTQTPASVEVAVGGTVTIKCQASQSIYSNLAWYQQRPGQPPKLLIYDASTLESGVPSRFKGSGSGTEYTLTISGVECADAASYYCQQGFTVSDIDNAFGGGTEVVVKR
B2: Antibody Ab6 (antibody, human IgG1, kappa, N297A)
heavy: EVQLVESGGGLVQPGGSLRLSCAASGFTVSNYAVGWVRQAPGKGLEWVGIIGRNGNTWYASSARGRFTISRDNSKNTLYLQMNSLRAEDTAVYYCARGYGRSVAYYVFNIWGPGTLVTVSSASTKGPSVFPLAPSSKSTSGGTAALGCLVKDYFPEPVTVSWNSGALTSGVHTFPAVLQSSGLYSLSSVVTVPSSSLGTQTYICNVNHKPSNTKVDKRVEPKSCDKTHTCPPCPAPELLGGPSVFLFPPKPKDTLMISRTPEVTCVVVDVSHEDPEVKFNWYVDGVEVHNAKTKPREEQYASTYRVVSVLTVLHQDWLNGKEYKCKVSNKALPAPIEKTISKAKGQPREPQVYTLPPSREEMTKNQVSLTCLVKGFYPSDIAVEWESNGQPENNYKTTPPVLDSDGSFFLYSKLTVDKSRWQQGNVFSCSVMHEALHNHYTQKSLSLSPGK
light: DIQMTQSPSTLSASVGDRVTITCQASQSIYSNLAWYQQKPGKAPKLLIYDASTLESGVPSRFSGSGSGTEYTLTISSLQPDDFATYYCQQGFTVSDIDNAFGGGTKVEIKRTVAAPSVFIFPPSDEQLKSGTASVVCLLNNFYPREAKVQWKVDNALQSGNSQESVTEQDSKDSTYSLSSTLTLSKADYEKHKVYACEVTHQGLSSPVTKSFNRGEC
B3: Antibody fragment Fab1 (Fab, V domains shown)
VH: EVQLVESGGGLVQPGGSLRLSCAASGFTVSNYAVGWVRQAPGKGLEWVGIIGRNGNTWYASSARGRFTISRDNSKNTLYLQMNSLRAEDTAVYYCARGYGRSVAYYVFNIWGPGTLVTVSS
VL: DIQMTQSPSTLSASVGDRVTITCQASQSIYSNLAWYQQKPGKAPKLLIYDASTLESGVPSRFSGSGSGTEYTLTISSLQPDDFATYYCQQGFTVSDIDNAFGGGTKVEIKR
B4: Antibody Ab2 (antibody, human IgG1, kappa, N297A, V domains shown)
VH: EVQLVESGGGLVQPGGSLRLSCAASGFTVSSYAMSWVRQAPGKGLEWVGVITSIGSTVYASSAKGRFTISRDNSKNTLYLQMNSLRAEDTAVYYCARGYDDYDEMTYFNIWGQGTLVTVSS
VL: DIQMTQSPSTLSASVGDRVTITCQASQNIYSNLAWYQQKPGKAPKLLIYGASNLDAGVPSRFSGSGSGTEYTLTISSLQPDDFATYYCQSAFDSDSTENTFGGGTKVEIKR
B5: Antibody fragment Fab2 (Fab, V domains shown)
VH: B3 VH
VL: B3 VL
B6: Antibody Ab3 (antibody, human IgG1, kappa, N297A, V domains shown)
VH: QSVEESGGRLVTPGTPLTLTCTVSGFSLSSYVMIWVRQAPGKGLEYIGITWSAGTYYASWAKGRFTISKTSSTTVDLKITSPTTEDTATYFCAGGGGSIYDIWGPGTLVTVSS
VL: AVLTQTPSPVSAAMGDTVTIKCQSSQSVYKNNYLSWYQQKPGQPPRLLIYDASNLPSGVPSRFSGSGSGTQFTLTISGVQCDDAATYYCLGDYDDDADNAFGGGTEVVVKR

Columns and labels:
[1] = target: T1, Homo sapiens Beta-Nerve Growth Factor (beta-NGF) (Homo sapiens, UniProt P01138 122-241); experiment: Antigen binding ELISA: biotinylated NGF on neutravidin plates, anti-human Fc-HRP, OD 450 nm
T1 construct: Biotinylated and held on neutravidin plates in the ELISA; also called huNGF; B-NGF
Description: (§1) To identify and characterize antibodies and Fab fragments that bind to human NGF, antibody- and Fab-containing solutions were tested by ELISA. Briefly, neutravidin coated plates (Thermo Scientific), were blocked with ELISA buffer (0.1 mg/mL BSA, 1×PBS pH 7.4, 0.002% Tween 20 and 0.005% sodium azide) for 1 hr at room temperature. The plates were then coated with a 1 µg/mL biotinylated B-NGF solution in ELISA buffer for 1 hour at room temperature. This was followed by a wash step (3× using PBS plus 0.05% Tween 20) and a second block with ELISA buffer. The recombinant antibodies or Fabs were then added onto the plates and incubated for 1 hour at room temperature and then washed 3× with PBS/Tween solution. For development, an anti-human Fc-HRP or an anti-human Fab-fragment HRP (1:5000 dilution in ELISA buffer) was added onto the wells and incubated for 45 min at RT. After a 3× wash step with PBS/Tween solution, the plate was developed using TMB substrate for 3 minutes, stopped using 0.5M HCl, and read at 450 nm.

[2] = target: T1, Homo sapiens Beta-Nerve Growth Factor …; experiment: Antigen binding ELISA: biotinylated NGF on neutravidin plates, anti-human Fab-fragment HRP, OD 450 nm
Description: as §1

T1 sequence (P01138 122-241): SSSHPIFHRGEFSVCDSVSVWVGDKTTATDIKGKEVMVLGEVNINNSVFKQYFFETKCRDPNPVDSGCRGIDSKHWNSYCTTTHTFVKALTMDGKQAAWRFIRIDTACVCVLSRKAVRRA

Binder	EC50 [1] [nM]	EC50 (read off the curve) [1] [nM]	EC50 [2] [nM]	EC50 (read off the curve) [2] [nM]
B1	0.253	~0.3		
B2	0.256	~0.3		
B3			0.4	~0.04
B4	0.692	~0.7		
B5			0.8	~0.08
B6	0.257	~0.3		

From US20170051048A1 (ALDERBIO, published 2017)
